Values quoted from earlier work, collected in article PMC3321547 (Biochemistry, 2009).

Test system: DKH960
Conditions: folded DKH960, ref [6]

B1: DKH960: folded kinesin heavy chain construct (protein, UniProt P17210 1-960, looked up, fragment)
chain: MSAEREIPAEDSIKVVCRFRPLNDSEEKAGSKFVVKFPNNVEENCISIAGKVYLFDKVFKPNASQEKVYNEAAKSIVTDVLAGYNGTIFAYGQTSSGKTHTMEGVIGDSVKQGIIPRIVNDIFNHIYAMEVNLEFHIKVSYYEIYMDKIRDLLDVSKVNLSVHEDKNRVPYVKGATERFVSSPEDVFEVIEEGKSNRHIAVTNMNEHSSRSHSVFLINVKQENLENQKKLSGKLYLVDLAGSEKVSKTGAEGTVLDEAKNINKSLSALGNVISALADGNKTHIPYRDSKLTRILQESLGGNARTTIVICCSPASFNESETKSTLDFGRRAKTVKNVVCVNEELTAEEWKRRYEKEKEKNARLKGKVEKLEIELARWRAGETVKAEEQINMEDLMEASTPNLEVEAAQTAAAEAALAAQRTALANMSASVAVNEQARLATECERLYQQLDDKDEEINQQSQYAEQLKEQVMEQEELIANARREYETLQSEMARIQQENESAKEEVKEVLQALEELAVNYDQKSQEIDNKNKDIDALNEELQQKQSVFNAASTELQQLKDMSSHQKKRITEMLTNLLRDLGEVGQAIAPGESSIDLKMSALAGTDASKVEEDFTMARLFISKMKTEAKNIAQRCSNMETQQADSNKKISEYEKDLGEYRLLISQHEARMKSLQESMREAENKKRTLEEQIDSLREECAKLKAAEHVSAVNAEEKQRAEELRSMFDSQMDELREAHTRQVSELRDEIAAKQHEMDEMKDVHQKLLLAHQQMTADYEKVRQEDAEKSSELQNIILTNERREQARKDLKGLEDTVAKELQTLHNLRKLFVQDLQQRIRKNVVNEESEEDGGSLAQKQKISFLENNLDQLTKVHKQLVRDNADLRCELPKLEKRLRCTMERVKALETALKEAKEGAMRDRKRYQYEVDRIKEAVRQKHLGRRGPQAQIAKPIRSGQGAIAIRGGGA
maximum extent of inhibition of ADP release: over 50%
